In the supplement of paper PMC12764529:
± gives the half width of the 95% confidence interval.

Experiments:
[1] = folding stability dG unfold from chymotrypsin proteolysis; higher = more stable
Procedure, shortened: (§1)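 Bayesian fitting of sequencing counts gave K50 for each design. Unfolding free energy followed by setting this against a sequence-predicted unfolded-state K50 and a shared folded-state K50, either per protease or with trypsin and chymotrypsin combined. The designs, under 80 residues and lacking cysteine, were digested in a PA-tagged cDNA display format at 11 threefold-diluted protease concentrations and without protease, and only those with AlphaFold2 dimer inter-PAE above 15 were kept.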

[2] = folding stability dG unfold (combined trypsin and chymotrypsin); higher = more stable
Procedure, shortened: as §1

[3] = folding stability dG unfold from trypsin proteolysis; higher = more stable
Procedure, shortened: as §1

Sequence	folding stability dG unfold [1] [kcal/mol]	folding stability dG unfold [2] [kcal/mol]	folding stability dG unfold [3] [kcal/mol]
SAGGDWRPVEFTIKILIPKGMTADELIEEIKEIARNLGLTIKPISVEVYPVPNKYYVEINVEIWIPPNSAGG [r13_351_TrROS]	4.54 ± 0.19	4.17 ± 0.33	2.57 ± 0.14
SAGGMKITEEAIKNFPPGRWIQFRIPDDGYMVTIRVHDPGEIKINYRKFPPGNGEPREEQEHKIPLDSAGGS [r16_163_TrROS]	0.825 ± 0.28	0.917 ± 0.27	0.845 ± 0.24
SMVTVTFPDASPEEIRAAIEAHPDRDVVLVTAPGKEEELEKILKEYDYTKEEKALPDGRKVRVMKVKVPRSA [r9_1138_JUSTAS]	0.176 ± 0.42	0.462 ± 0.25	0.784 ± 0.14
SAGGSAGGSAGMVNTTLTTAPDGTRIVTTTFPENPDLVLRTTYAPDGSVLETELVPSSQLSAGGSAGGSAGG [r11_909_JUSTAS]	1.04 ± 0.023	1.52 ± 0.026	1.98 ± 0.045
SAGGSAGGSALLEALKALPPNATLTLVTVETRTETVTDADGSTHTRTTTRVTVTTITIRPEDLSAGGSAGGS [r12_805_TrROS_Hall]	3.67 ± 0.089	3.18 ± 0.12	2.27 ± 0.12
SAGGSAVIVIETRADDPRLLEAIKKAREEGKPVVVRFPDGKALVFYPEGPVEEVDSPEQLKEAGFGSAGGSA [r15_94_TrMRF]	1.716 ± 0.011	1.94 ± 0.031	2.19 ± 0.033
SAGGSAGGSASNPKIISVENLGNYTVVLAEDPEDGSLVLVVINPDNNSALVFKDNKPVAVFSAGGSAGGSAG [r3_297_TrMRF]	1.66 ± 0.11	1.45 ± 0.13	1.33 ± 0.025
SAGGSAGGMSITINLPNGVTLTITTGDNDVYPITITYPGGETKTLTVTEPLSSISQVISNIVNSSAGGSAGG [r6_27_JUSTAS]	3.28 ± 0.035	3.33 ± 0.042	3.38 ± 0.069
SAETVVIPIEAPEDEILAAIKALIDANPDVKITITYADGEKKEITLPDGTKITIERLPDGTLLITVEKVSAG [r14_807_TrROS_Hall]	1.74 ± 0.066	2.49 ± 0.17	3.19 ± 0.23
SAGGSAGGSAGQTLLVEVNGQLAEITIDPDVPGQITITLPNGEQITLEVRLEPPPPPEEESAGGSAGGSAGG [r17_85_TrROS_Hall]	1.39 ± 0.17	1.6 ± 0.16	2.08 ± 0.3
SAGMSLEEIAKEFAKKKGLKKVEIKYYPEKKTYEIKVYLEEPGEPKTATIKVEDVTPETFKKAIEEILESAG [r5_896_TrMRF]	4.75 ± 0.16	4.83 ± 0.41	3.61 ± 0.32
SAGPIKEKTITFPNGMRAKITDIQVGPPPDGEPLIKLKVKVEMWQPKRDPDGKQDGWQPMKMEMTLIIPSAG [r5_476_TrROS]	3.91 ± 0.058	3.51 ± 0.36	2.68 ± 0.18
SAGGSAKKVEKVTVTVLIEKDGKLYLVRVTVTRPKVKYDKKTGKFTVTLKPGEKVEIKVEVVELPESAGGSA [r15_1040_TrROS_Hall]	3.7 ± 0.12	3.62 ± 0.24	2.65 ± 0.21
SAGGIVAADVSPDGTVYPISPEAVRALVDAIRDRYGFDVKVTITEARYGDRWVTVIPIELTGLSPEEASAGG [r13_790_TrMRF]	1.54 ± 0.02	1.5 ± 0.08	1.31 ± 0.04
SAMDFKAEKVEILKVEKLKDGTVKITVKVEVGKYVLNAEIPYGKDGKIEKIEAEIDLENNFMTYKVTVGSAG [r14_189_TrMRF]	2.24 ± 0.13	1.97 ± 0.33	1.58 ± 0.19
SAGGSAGGSAGGSVWIMIPLEEIKDLLPPGWTVEVEPQPMPNNGYIMVPVEIVPPDNAKSAGGSAGGSAGGS [r4_119_TrROS]	0.861 ± 0.13	0.552 ± 0.16	0.0715 ± 0.047
SAGGSQKLPPGETIPIRIPGFQIEISPDKTTIHVMWPDPDEAKDFLKNLPFPIKIDKVEVMPPEDFSAGGSA [r2_418_TrROS]	1.01 ± 0.035	0.85 ± 0.11	0.515 ± 0.066
SAGGSAGGSAGGEEKTEEEKRKEERLKPAPPLVLELDVEVDGKLYRFRLVNGKLEIEELPSAGGSAGGSAGG [r7_156_TrROS_Hall]	2.98 ± 0.038	2.56 ± 0.11	1.71 ± 0.047
GYRPALAVVELGPNSRLLLRPPEGPSVEIEVESPEEALAAALKLLPKDQPLVLEVFDEGKLIETIPIEIPPS [r1_276_TrMRF]	1.87 ± 0.069	1.55 ± 0.095	0.973 ± 0.036
SAGGSAGGSAGGKTIVLLDEETNELVTIEIDEETGEVKITVVRLKDGKLETKTETIKLPSAGGSAGGSAGGS [r10_756_TrROS_Hall]	2.23 ± 0.21	2.07 ± 0.19	1.93 ± 0.091
SAGGSAGGSAGGSMSTINFPSKEEIEAYLKKLGLKNVKLPWYPNNNVMDTSDIEKDILESAGGSAGGSAGGS [r4_101_JUSTAS]	1.29 ± 0.03	1.14 ± 0.058	0.996 ± 0.022

Sequence	folding stability dG unfold [1] [kcal/mol]	folding stability dG unfold [2] [kcal/mol]	folding stability dG unfold [3] [kcal/mol]
SAGGSAGGSAPPGQQLRVRIRIYNPNNGEPKREREFPGMTVDDLKEWAQKNGWRIREIEVDSAGGSAGGSAG [r3_423_TrROS]	1.49 ± 0.2	1.3 ± 0.095	0.559 ± 0.1
SAGGSAGGSAWMYRIKIEIYSNGKKHKYEFWIPEDNIDEVADQLPPGYKIKITDIEPWEPNSAGGSAGGSAG [r3_195_TrROS]	2.73 ± 0.049	2.46 ± 0.14	1.82 ± 0.022
SAGKPGEPIKLKIRYVDPDNGEPQTFEFPIKRIEDVEIDPPGNIIITFPGDGQEITFPPNHLTEVEILSAGG [r19_416_TrROS]	0.36 ± 0.24	0.0637 ± 0.18	-0.852 ± 0.73
SAGKKTITVPLKDLKKVLEELKKKYPNIKKVKIYVNGKEYEIKVGEKVKITEVIKNENGEEFVKIEIYKSAG [r5_130_TrROS_Hall]	3.41 ± 0.082	3.31 ± 0.22	2.97 ± 0.17
SKPMSPRDQLREIADDIAEKLNEKNGKPYKVRVEFEYPNMPFEIEIPPEAPIEDIMDHFPGWKIKVEIEPSA [r9_513_TrROS]	0.0344 ± 0.32	0.0339 ± 0.52	0.00988 ± 0.15
SAGGVITAVESTTTPLPNGTVLVTLTLKEGGETLQVTVTVSPDGVTVTTPSGKTSTIAPEELASLLPSAGGS [r16_593_JUSTAS]	1.39 ± 0.025	1.34 ± 0.076	1.31 ± 0.025
SAGGSLRGVLFDPEGGRVYVLEYDPALGSFRVRPFPVPPVLPISREAAAEILRRELGLPREVVERLLASAGG [r13_824_TrMRF]	3.438 ± 0.033	3.15 ± 0.093	2.58 ± 0.082
SAGGSAGGPANKKYLLVADAEVDPETGTVKVTVEYPNGKKVEFTFPAKNFHPDEKVLVPVVVTDSAGGSAGG [r6_768_TrMRF]	0.67 ± 0.17	0.86 ± 0.1	1.02 ± 0.052
SAGGSAGGSAEKKTITVVVKVDENGKEKTPEELAKELEKAGFKVTKVTWDEENNYVTVTIEASAGGSAGGSA [r18_466_TrROS_Hall]	1.11 ± 0.049	1.4 ± 0.18	1.72 ± 0.088
SAGMEELAKELAEKLAEELPPGWKIVEIKVERLEDGTLRVRITIYRLDENGKLVEKREIEIEIPLEELSAGG [r19_28_TrROS_Hall]	4.63 ± 0.081	4.5 ± 0.15	3.91 ± 0.22
SAGGSALEVKPGAGNTLTVYTPLPEDIPISEVIEELKKKYPNITAETDETSDGVAVVTLTLPPGLGSAGGSA [r15_1047_JUSTAS]	0.401 ± 0.25	0.724 ± 0.12	0.984 ± 0.051
SAGGSAGGSAGSMVTKTTTVEEKIGPGNLKLVKEKITIYDPSTGKPIKEETKITIEPVLLSAGGSAGGSAGG [r17_317_JUSTAS]	0.452 ± 0.24	0.148 ± 0.38	-0.493 ± 0.16
SAGGSAIPPDNVKEEREITDPDDDTKIKVWRYPNDGRYWVQVYNKKGEPKWKQLGPMPANQAEDLISAGGSA [r15_295_TrROS]	-0.31 ± 0.38	-0.057 ± 0.23	0.0985 ± 0.35
SAGGSAGGSAGGSGAEELAKKLQEKLEELGLEAEITVEYDEETNELTITITVDGKEYEFSAGGSAGGSAGGS [r4_312_TrROS_Hall]	1.74 ± 0.063	1.94 ± 0.06	2.24 ± 0.13
SSIEEQIREIFEPKGMEITDVKTEKKPDGTTVAKFTYTDPVKDEKGNPISTLTKEGTVVFKNGKIVEVEESA [r9_519_JUSTAS]	2.779 ± 0.016	2.61 ± 0.049	2.27 ± 0.052
MEEIRDLPGIKWQPIERDGDRYYWMFTIPPEQFKNNGKPPVIVMAEFEPNGKWRITPWIRPWLRKLGIEPVS [r1_256_TrROS]	1.72 ± 0.083	1.92 ± 0.091	1.92 ± 0.049
SAGGSAGGSAGGEIKPGETITNLKVKIRNKKTGKTITVTLKPGETAEDLAKKLGVEIEPSAGGSAGGSAGGS [r10_202_TrROS_Hall]	0.881 ± 0.097	0.87 ± 0.1	0.622 ± 0.12
SAGGSMVLVRVERTPDGTLRVTALFFFDGRLLRVERTFRLAPDGRIVDADVSVEELPVPPSEVPVLSAGGSA [r2_474_TrMRF]	4.45 ± 0.071	4.11 ± 0.099	3.39 ± 0.16
SAGGSAGGSAGGGWIYMVTIEPKEVKRSPDPGGKGRPTFEFEMDITIIWIRVDPEDLDDSAGGSAGGSAGGS [r10_654_TrROS]	4.14 ± 0.073	3.76 ± 0.15	2.85 ± 0.13
SAGGSAGGSASKNGKELEIKIKVDIYPFPGWGIVRVDYEIEYPDGKEQKFDLWIPVPPGDASAGGSAGGSAG [r3_330_TrROS]	1.64 ± 0.088	1.66 ± 0.17	1.65 ± 0.11
SAGGSAGGSAGGELELEVEVDGVLVRARVELDPETDELKIELEVRPLPPPEVVFLPEDRSAGGSAGGSAGGS [r10_582_TrROS_Hall]	0.504 ± 0.029	0.489 ± 0.1	0.576 ± 0.072
